Experimental data published in the supplement of paper PMC6379048.

Key:
ZCCHC8 [1] = target: T1, ZCCHC8 (UniProt Q6NZY4); test: Kd (EC50 corrected by depletion factor)
T1 sequence: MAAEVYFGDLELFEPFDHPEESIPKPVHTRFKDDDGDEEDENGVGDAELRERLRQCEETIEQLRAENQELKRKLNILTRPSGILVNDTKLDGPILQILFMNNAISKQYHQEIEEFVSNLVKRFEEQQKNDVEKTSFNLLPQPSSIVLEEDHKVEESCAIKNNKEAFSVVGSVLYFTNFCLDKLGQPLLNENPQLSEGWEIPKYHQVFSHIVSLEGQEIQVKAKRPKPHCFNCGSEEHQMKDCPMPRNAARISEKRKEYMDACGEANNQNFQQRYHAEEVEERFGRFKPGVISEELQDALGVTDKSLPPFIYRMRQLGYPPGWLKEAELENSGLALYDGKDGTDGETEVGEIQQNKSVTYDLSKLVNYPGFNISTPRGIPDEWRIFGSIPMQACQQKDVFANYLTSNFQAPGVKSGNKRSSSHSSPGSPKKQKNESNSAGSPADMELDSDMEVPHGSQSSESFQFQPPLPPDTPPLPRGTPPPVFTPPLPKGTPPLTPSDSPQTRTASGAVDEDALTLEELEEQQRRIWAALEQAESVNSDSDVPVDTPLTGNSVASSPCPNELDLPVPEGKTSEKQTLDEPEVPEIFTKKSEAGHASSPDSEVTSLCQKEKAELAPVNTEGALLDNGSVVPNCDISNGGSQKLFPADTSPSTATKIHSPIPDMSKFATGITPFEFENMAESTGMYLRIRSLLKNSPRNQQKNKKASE
Protocol: (§1)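 Competition-binding assay: HEK293-FT cell lysate (2.5 mg protein) pre-incubated 1 h at 4°C with free motif-containing RNA oligos (0 to 30 µM, 12 doses), then pulled down with the same 5'-amino-C6 RNA oligos immobilised on NHS-Sepharose beads (30 min, 4°C). Bound proteins were quantified by label-free LC-MS/MS and normalised to the water control. EC50 came from a four-parameter log-logistic fit; Kd = EC50 x depletion factor. Random/reversed control probes are dropped.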

DHX15 = DHX15 (UniProt O43143); test: Kd (EC50 corrected by depletion factor)
DHX15, sequence (O43143 whole entry): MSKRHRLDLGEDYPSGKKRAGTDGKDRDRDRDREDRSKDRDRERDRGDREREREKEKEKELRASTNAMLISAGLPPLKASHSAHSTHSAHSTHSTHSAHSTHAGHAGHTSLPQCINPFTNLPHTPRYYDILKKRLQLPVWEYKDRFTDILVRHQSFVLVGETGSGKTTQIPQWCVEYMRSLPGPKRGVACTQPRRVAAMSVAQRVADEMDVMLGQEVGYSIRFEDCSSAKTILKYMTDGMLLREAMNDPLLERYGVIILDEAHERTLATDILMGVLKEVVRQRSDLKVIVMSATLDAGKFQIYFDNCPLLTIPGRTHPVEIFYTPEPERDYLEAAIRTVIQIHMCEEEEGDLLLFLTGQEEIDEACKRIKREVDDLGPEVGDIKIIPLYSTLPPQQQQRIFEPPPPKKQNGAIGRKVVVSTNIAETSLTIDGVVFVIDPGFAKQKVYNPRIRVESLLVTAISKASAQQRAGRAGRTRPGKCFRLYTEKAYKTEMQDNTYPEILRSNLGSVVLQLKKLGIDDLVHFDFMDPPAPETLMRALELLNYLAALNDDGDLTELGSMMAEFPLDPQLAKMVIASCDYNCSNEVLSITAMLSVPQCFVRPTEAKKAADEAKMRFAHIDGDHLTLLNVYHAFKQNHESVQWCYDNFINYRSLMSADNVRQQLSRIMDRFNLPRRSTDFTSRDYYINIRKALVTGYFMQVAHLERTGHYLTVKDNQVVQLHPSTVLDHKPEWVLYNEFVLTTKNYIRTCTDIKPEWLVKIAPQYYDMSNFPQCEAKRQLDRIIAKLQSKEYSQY
Protocol: as §1

SSB = target: T2, SSB (UniProt P05455); test: Kd (EC50 corrected by depletion factor)
T2 sequence: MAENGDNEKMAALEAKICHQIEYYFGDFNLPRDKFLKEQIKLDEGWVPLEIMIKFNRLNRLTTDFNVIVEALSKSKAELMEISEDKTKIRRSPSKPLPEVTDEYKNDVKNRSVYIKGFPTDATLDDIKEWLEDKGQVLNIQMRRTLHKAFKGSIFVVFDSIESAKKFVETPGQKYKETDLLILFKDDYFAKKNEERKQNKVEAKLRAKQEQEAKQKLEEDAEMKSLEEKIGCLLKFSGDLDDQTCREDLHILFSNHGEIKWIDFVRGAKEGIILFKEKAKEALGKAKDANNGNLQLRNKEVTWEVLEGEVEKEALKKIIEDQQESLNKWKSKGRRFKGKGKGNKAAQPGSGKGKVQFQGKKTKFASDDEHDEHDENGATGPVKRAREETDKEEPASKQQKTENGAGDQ
Protocol: as §1

NKRF [2] = target: T3, NKRF (UniProt O15226); test: Kd (EC50 corrected by depletion factor)
T3 sequence: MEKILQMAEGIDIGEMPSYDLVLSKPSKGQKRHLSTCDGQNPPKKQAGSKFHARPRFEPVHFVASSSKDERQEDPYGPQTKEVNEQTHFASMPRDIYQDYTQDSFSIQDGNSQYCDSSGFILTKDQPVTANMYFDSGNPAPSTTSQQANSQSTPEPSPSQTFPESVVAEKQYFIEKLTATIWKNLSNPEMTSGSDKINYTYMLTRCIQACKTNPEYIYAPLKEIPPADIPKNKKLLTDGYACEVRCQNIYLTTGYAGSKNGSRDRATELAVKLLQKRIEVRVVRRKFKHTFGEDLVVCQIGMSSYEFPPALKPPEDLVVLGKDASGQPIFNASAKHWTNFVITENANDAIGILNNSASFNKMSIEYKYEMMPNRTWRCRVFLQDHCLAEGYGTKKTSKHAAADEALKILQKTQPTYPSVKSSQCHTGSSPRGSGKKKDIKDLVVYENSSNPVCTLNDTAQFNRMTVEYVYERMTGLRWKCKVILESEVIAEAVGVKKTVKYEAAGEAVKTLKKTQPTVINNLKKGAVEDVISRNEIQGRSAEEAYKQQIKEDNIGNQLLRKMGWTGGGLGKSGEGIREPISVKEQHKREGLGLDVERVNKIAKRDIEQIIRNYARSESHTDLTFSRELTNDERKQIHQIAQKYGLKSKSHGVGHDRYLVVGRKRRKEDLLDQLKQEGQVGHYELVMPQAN
Protocol: as §1

RTCA = target: T4, RTCA (UniProt O00442); test: Kd (EC50 corrected by depletion factor)
T4 sequence: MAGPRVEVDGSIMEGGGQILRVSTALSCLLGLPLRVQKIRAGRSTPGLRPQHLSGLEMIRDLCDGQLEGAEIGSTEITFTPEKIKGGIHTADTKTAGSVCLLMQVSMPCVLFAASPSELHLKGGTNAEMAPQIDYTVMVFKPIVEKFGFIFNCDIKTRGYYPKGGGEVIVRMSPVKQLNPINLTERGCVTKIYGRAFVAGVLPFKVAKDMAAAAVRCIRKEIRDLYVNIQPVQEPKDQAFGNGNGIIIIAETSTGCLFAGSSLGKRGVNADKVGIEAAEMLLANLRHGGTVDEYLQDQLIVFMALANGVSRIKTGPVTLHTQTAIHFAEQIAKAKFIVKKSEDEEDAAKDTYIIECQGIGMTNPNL
Protocol: as §1

ZCCHC8 [3] = target: T1, ZCCHC8; test: EC50 of free RNA motif oligo competing protein binding to immobilised probe
In short: (§2)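 To obtain EC50, data were fitted with a four-parameter log-logistic model; Kd was then EC50 multiplied by a protein-dependent depletion factor. Beforehand, free RNA oligos (0 nM to 30 μM) were pre-incubated with HEK293-FT lysate (2.5 mg protein/well) for 1 h at 4°C. The lysate then spent 30 min at 4°C with the same 5′-amino-C6 oligos coupled to NHS-Sepharose beads, and bound proteins were quantified by label-free LC-MS/MS, normalised to the control.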

PHAX = PHAX (UniProt Q9H814); test: as above
PHAX, sequence (Q9H814 whole entry): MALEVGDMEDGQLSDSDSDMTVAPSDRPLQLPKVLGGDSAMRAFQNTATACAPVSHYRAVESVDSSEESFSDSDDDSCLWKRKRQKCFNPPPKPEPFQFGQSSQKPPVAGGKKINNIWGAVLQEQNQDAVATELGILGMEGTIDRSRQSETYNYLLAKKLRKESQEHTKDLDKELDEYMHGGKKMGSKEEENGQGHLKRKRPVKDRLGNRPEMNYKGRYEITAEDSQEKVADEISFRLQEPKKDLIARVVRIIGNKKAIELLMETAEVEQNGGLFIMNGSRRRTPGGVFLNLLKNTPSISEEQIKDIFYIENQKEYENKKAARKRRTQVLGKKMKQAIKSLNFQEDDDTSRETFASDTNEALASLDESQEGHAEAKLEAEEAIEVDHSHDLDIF
In short: as §2

NKRF [4] = target: T3, NKRF; test: as above
In short: as §2

DHX9 = DHX9 (UniProt Q08211); test: as above
DHX9, sequence (Q08211 whole entry): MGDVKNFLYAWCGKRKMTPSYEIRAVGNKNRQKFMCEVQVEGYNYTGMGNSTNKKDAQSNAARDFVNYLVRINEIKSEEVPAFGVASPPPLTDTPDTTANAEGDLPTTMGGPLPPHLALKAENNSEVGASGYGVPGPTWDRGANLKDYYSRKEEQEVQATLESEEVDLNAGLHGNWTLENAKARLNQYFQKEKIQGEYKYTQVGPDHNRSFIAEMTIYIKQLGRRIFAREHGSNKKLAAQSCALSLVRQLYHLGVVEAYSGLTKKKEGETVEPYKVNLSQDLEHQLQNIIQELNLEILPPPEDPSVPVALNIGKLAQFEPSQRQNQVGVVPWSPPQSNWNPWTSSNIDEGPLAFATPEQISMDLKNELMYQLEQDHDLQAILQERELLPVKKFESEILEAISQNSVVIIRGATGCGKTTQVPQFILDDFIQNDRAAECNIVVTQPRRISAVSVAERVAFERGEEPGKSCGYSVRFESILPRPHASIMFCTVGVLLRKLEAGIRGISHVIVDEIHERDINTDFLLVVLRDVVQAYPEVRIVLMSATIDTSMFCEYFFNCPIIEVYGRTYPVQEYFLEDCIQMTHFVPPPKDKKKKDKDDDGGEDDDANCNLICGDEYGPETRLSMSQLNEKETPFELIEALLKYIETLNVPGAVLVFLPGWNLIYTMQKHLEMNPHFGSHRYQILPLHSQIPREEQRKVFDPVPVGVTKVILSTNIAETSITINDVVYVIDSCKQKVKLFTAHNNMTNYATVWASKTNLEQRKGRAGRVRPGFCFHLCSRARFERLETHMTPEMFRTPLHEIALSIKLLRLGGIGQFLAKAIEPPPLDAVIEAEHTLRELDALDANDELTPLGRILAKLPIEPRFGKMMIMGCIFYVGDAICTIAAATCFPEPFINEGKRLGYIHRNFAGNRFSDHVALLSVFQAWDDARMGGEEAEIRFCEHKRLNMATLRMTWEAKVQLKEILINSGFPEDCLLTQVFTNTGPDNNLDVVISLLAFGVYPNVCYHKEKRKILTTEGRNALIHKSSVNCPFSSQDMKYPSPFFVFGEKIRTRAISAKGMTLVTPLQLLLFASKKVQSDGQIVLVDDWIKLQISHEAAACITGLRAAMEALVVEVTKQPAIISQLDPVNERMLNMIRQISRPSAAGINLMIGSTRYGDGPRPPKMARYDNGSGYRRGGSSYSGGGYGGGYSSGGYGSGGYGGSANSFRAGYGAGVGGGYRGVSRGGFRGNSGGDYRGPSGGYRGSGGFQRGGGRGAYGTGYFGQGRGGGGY
In short: as §2

## UAUUUAU
ZCCHC8 [1]
  Kd: 200 nM
DHX15
  Kd: 157 nM
SSB
  Kd: 289 nM
NKRF [2]
  Kd: 223 nM
RTCA
  Kd: 273 nM
ZCCHC8 [3]
  EC50: 615 nM
PHAX
  EC50: 9100 nM
NKRF [4]
  EC50: 380 nM
DHX9
  EC50: 1870 nM

## CUGUCCU
ZCCHC8 [1]
  Kd: 1740 nM
DHX15
  Kd: 358 nM
SSB
  Kd: 1060 nM
NKRF [2]
  Kd: 298 nM
RTCA
  Kd: 990 nM
ZCCHC8 [3]
  EC50: 3110 nM
PHAX
  EC50: 1350 nM
NKRF [4]
  EC50: 554 nM
DHX9
  EC50: 546 nM

## AAUAAA
ZCCHC8 [1]
  Kd: 190 nM
DHX15
  Kd: 446 nM
SSB
  Kd: 365 nM
NKRF [2]
  Kd: 222 nM
RTCA
  Kd: 81.1 nM
ZCCHC8 [3]
  EC50: 2460 nM
PHAX
  EC50: 10700 nM
NKRF [4]
  EC50: 1180 nM
DHX9
  EC50: 4050 nM
